Assay: soluble fraction after stress (log2 fold change); higher = more stays soluble; pooled small domains, quantitative proteomics
Settings: stress: 75 degC
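Also: 20 min heating vs room temperature control held 20 min.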

Sequence | soluble fraction (log2)
HMKIDLPIWLNKKAWEAWVEYKKERKQKLTPSIIKFQLRILEKNKEDHPEIIRNSITNGWTGLFPLK | -1.81
HMKIEDSNTIKLKANQAYKTHYYSEAIKLYDELLTKYEPNSEAIKLNLAHAHFKAKGFAAASKLYT | 0.0472
HMKIELTDQQKSLVVDEWNKGEANPPSLLQLIRLAYPDQPHLDGRSKEGKAVKAFLATRDINPLA | 0.0244
HMKIETVENPLLERTEISALFDSKSGSLTRKEAIDLISKKARIDSSTVYAIKLSNSSGSTRIIGLFY | 0.16
HMKIIDDIQEFAGVTKTQNTFFHIFNHLHQNGKQLILTSDRAPVMLQGMEERLLTRFKWGLVAELE | 0.285
HMKIKKIWFDGDYIYGMDERNNTYRQSLLWYSKLRNASAEERERYTFSTIGIHWRELDEDVSFESF | -3.03
HMKIKLQATEQQRKTLDELYVQLKKLEPTSKEDLSLLYRLENPHLVSKQEAQGLISIAIGRVGSLAIEQQ | -0.44
HMKINKQHLAFQIFGIRAKLGLSMEQFGELLGANKSSVSGWERGTVVPSSQRLKKIAELGKISLAELLTP | -3.01
HMKINVQETEVYRYLLERADRLYSMILGEERENLMERTRFFEKEVAKASLPHLPKLYDEFSIYLDRLERG | -0.393
HMKIPYGELIKLLNAAAPKLQDAQGWMDMEAAGQFIGSRWSYLDYGFKDWPDSFKTVHGLEIQGQRMRLA | -0.577
HMKIQISGSQRIDENVVVKVAGLSFPQSLLSLEPGQIESKLMQELPVQEVSVQRRLLPPGLDIQLVE | -0.0996
HMKIQTYEDFRNAYPDIQGSLFGSAERYKTDLDWGDVAAKYDADEELKNVRNIFQLVRRYEQKYS | 0.612
HMKISIPQEYFEIYNVLKQRPMHINEISKILKKPVSEISGTISLMEIEGYITKLTTDQYVLKKI | -0.473
HMKITADQEIETAINYFKKSIAEKGWKGVNPDEFKQMNDYLSETFGYSATIKFQKALDEQGLMVDE | -0.0068
HMKITININIETLSHHIKQSGVPLGRLQESVPDYNEIVTGNKSPTYQQLEKISKLIRVPLGLLVIESPL | 0.039
HMKITLAESVYERIRRDIITNQLKPGEKINIRELSTRYEASETPIRLALNRLASENIIEHFPRQGMRVK | -1.4
HMKIVPEPGTVLIREYQEERHEVTVTLDGAFDYKGTLYSSLSEIARLITGTRWSGPVFFGLRS | -0.369
HMKIYDQVVDRIKDRISKGDMPQGSALPPERQLIDELNVSRSSLREGFRILEMMGLIESIPGKGRFVRTSR | -0.607
HMKKAIYPGSFDPLTLGHIDIIKRASGIVDELVVGVLNNSAKNSLFSLDERVSMIEEMTKDLPNVSVTSFD | 0.16
HMKKEDFLEILRDYLKKGFSEDEVMDILRDYEEYFVDGIIEGKSEIEIIQSLGSPKEIANELLAES | -0.631
HMKKEQVIVPNVVGDTYDVALRKLTDAKLKVGETFPADREGHQGVIEKQSPAAGETVDEDTPVALFFKV | 0.0903
HMKKERITWDERLERFAKYITENESLPYPSSKEHAWFEENKALYDAGELESVRAQSFSFLLKILRRMNLI | -0.787
HMKKGATVSGVIVEKTKKSLIIDLGAKTEGVVADKEFEFAIDFVKELKKGDEVKAIVISTDNDKGQVVLSL | -0.414
HMKKHALFTLFKHHNANGTTVWYARFWDDATQRYAIARSTGVLAQGKRERHDEAITVAREMASSIQFS | -2.81
HMKKHAPSLMRQIRRELKEGKSPESLLSKAKLISDSYYRSLSFYLLIPYLSPNSKQFQEAISLAGKDID | 0.175
HMKKKSYIVSFATDEDAQRFAREGFEVISLSGRQITVSLKGEMMPLVKALGSYQVVGLETVA | -1.77

Sequence | soluble fraction (log2)
HMKKLPDDANDIIERVSSRLAQKFRFGYHTIDDMKQQAALFAWEGIYDSWDDSRPLENFLWIHVRNRLYN | -0.111
HMKKLTGVQKAAILMIALGPDISSSIIKRLPENMVERITYEIANMTKITAQQRNDILKEFMDMTVAQ | -3.64
HMKKNTEALDYYKKAGANFPEDEVISSEYLFRAAQLQEVLGKTDEAVAIYKDIKAKYPTTEIGLNVDKFIL | 0.0379
HMKKQLKSEAVADELRRKILSGGFPDKRLPRKDELTEYFQVSQKTVEAALKMLTAEGLIRGVKGTGIFVNG | -0.703
HMKKQLTISDGDWAGKVSSMLEDMGVINSASEFDKYLSDNGYSNVIKSGTYDVSPEDTFQELAEKIT | 0.952
HMKKRDAEIMLQREFKLTEAIAMVRDRDIQELLPIALYFKVNINQPTAEIRYNLLNIAKSKTQEFIEAFD | -2.14
HMKKRDANSQGTRLILFYMLQRLHTEYKLQGFVTYNQRRSFREIYDAYHALGGNGFGTAMWEEVKELDLK | -2.18
HMKKTAAKVLGESEGKPVTVQSGRYGPYVQLGSIRATLPKDLEQDDVTLDRALELISAKAERAGK | -0.0332
HMKKTDFNVENYDIEELAAILNFKYVPLNQGLIRDRIKDMKQRFKNKPEYIKFFTDVEIKLVNNLNLFN | -1.67
HMKKTFSKSSVMEAIFRDIPNITIPNAHEVYTLIKNISVMNKRKSITSEDIEKAYDALGLTP | -0.928
HMKKTPLSELTNRAVELFIETVFMERNYSVSSQRQFISALKIFTVFYPQTKIHNLSLERLQSSFDKLLN | -1.25
HMKKTTEFAVTPEFQQRLEASPELKAAFQALTPGRQRAHLLFFAAPKQAQTRQARIEKSLPQIMAGKGLN | -0.2
HMKKTVTDSVELLTFLKDIFTNTSTNKLRKMLTTGRVTVNNIVIHKAKHILVQNDVVEIGDK | -3.37
HMKKVIEFKDVSFAFEKKPILQDFNLLVQNKDRIGIVGDNGVGKSTLLNLIAERLQPQSGQVII | 0.111
HMKKVSVKPILELRAAGISMRKIETLMHVSRHTISAIYKAADAYSISWDNVKDFDEDKIYEMLFPPTP | -4.13
HMKKYEIIFNDLKQSIVNGKYSNEERLPPEETLAKKYQTSRVPVQQALNALVGIGMVKRIAGSGTYVTY | -0.394
HMKKYFPPKSRFNPNKYLLKDWMALGLSEKQSQSILNFIQRGIYSNSALEKIYVMPEEVFTLIKDSTYYEE | -1.38
HMKKYIEIYNYYKQLIESEQLKSGDKMPSVRKATKIFNVSKTTVQNAYFDLQADGYIIAAPKSGYYVTEM | -1.07
HMKKYLNIYNIIVNKIESKEYQSNDKLPSEKELMDQYNVSRDTVRKSLNMLEQNGYIQKTKGKGSFVLDIN | -0.865
HMKLEEITIIVPSLRLDNFVSDLARTSRSKAVQIIDSERVFINGQNETKASKQVKLGDVITSA | -0.211
HMKLHPRDQERTRAISARGERLYAVTVGDLRRRIGEMLEWFGRQIESQEPMRVAKAARRITDFFDQVEAFT | -2.5
HMKLIRLGKAAGELNVGMSTLAEFLQSKGHSVDPNPNTKLTPEQYALLRMEFAADQTLKKLTKQP | 0.452
HMKLKHANGNHPLTQQEKQNMIEEAAKHYGDYMTALGFDWKQDPNSSDTPMRVAKAFVNDLAEGVY | 0.0234
HMKLLLSANISKLRKKYSMTQEQLAEALGVTFASVSKWERGVATPELKLIAEMADMFEVSIDALIGYEFRN | -1.87
HMKLPIEKESYRIIWDLEEESFRIRLKISENSPQEEKNILINQAIEDIENITGEPIDKSPYYVLYE | -0.627
HMKLPNSFGSIQKLSGNRRKPYRVVKTIGWDENGKQIRKTLGYYETRAKALQELALFNEKPYD | -1.72

Sequence | soluble fraction (log2)
HMKLTALWTANPKISAPIYSEPSTQSKTLGRIYQGASVKVYSFDPEWAYINSSGVVGYVLRRHLE | -2.43
HMKLTINIDAAHDGKTIKQLFAEKGYSLELIKKFKYDGAIEVNGERKTVRWVLREGDLLVLEAN | -2.42
HMKLTNIQYETLKVVVESRAKIDEEEGITIKLEDIKKYIDQAISFTGLVGDDEDYKKLFADMEYRFKIQ | -2.96
HMKLVAAGYHQNRLLVLLGIQAEELQAKRLLASFDRFRGREATPKPPIHDSARRWLRDTYHHVMNQVPVEL | -1.59
HMKMHKIIKERRLALNFTQEQVAKYLGVTTPAVNKWEKGISYPDISLLPALARLLDTDLNTLLSF | -4.38
HMKMLPAEVLTHPAVVALIERGAPTGSITPEEVRQASEDAAVEPRHLKALLAHLSALGISVQIP | -0.303
HMKMLSIQRREAIRALLLEKESITIAEVMEKFQISVETARRDFDALADEGFLNKVYGGATLKK | -1.68
HMKMPNGYGSITKLSGKRRKPWRVRKTAGWELDAKTQKLKQTYINIGYYETRADAMSALVSYNEDP | -1.01
HMKMQPVISQGVLYINNVTDVRTIEVFDISGRIVADAAASTTVNIAHLNEGPYIVKVTTVNGIESIKILNK | -2.5
HMKNAMTDIYLEEIKKILTKNEFLVYTLRELNNFSVQFITDNYDLSEKTIYNSVYRAKKKIDRHFT | -0.159
HMKNDKLLIFMELKGISRTQLSKSTGIPASTLGRIINGDVQKIKAVYMEAIANALDTSIHTIFDV | -1.6
HMKNDNIHMMASKINGIALEVGVLTPGMHPKNDLSEGEVGYIVTNLKTTREAKVGDTVTLAKKPAATPLPG | 0.322
HMKNETFAITSEDAGKRLDVWLTNILGDYSRSYVERLVEQGNVTVGGKTVKAGYKLKAGDSVQVSIPGPK | 0.144
HMKNISSEEDREKALSLGITQEFIDNKGRYFITVPNKPSNFKEQALNIQKEISEQIDTVINKRFEF | 0.0903
HMKNLDILTPKEIEVLNLVAKGYSNSKISKELDIAEVTVKKHIGSMFQKLDVKDRLSLALIL | -0.591
HMKNLKPSTEVILKELVKRYPDQTEFRKQQIVDVGQSFGYKGKDYGPIFDADNRVKIGTYDLAGLIVPLQR | 0.0472
HMKNLNVIDLSALRTLELKESSDWTLIQKRFKLLVKKYHPDMNAGSKQYEEKLKKITLAYTHLKKLF | -2.67
HMKNQQLFNIGDRFQVDGVAYRMEKLFPENGTVEVYNLGVGRHKTMSFEEILALWNSGKLLFEI | -0.966
HMKNSIKLDNFVGMSYDEVISNKEYDFNFVSAFEKTSDYEAGTIIGQTPAAEERVMVGTTVTLTVAQP | 0.491
HMKNTADRVYENLFHMLVSGDYAPGDRIPSEHELKERFNVSRNTIRAALNRMNALGIIETRQGDGTYLKG | -0.472
HMKNTFGLTEREMEVLALIVDGLSNPEIAEKLFITRATAKAHVHSILQKLYVDDRTQAAVTAMREGL | -2.21
HMKNTIPVPHIIGLSEQEARETLERAGLQLNVIKTEPNTKYESGQVTDTNPNEGIKVPKGTIVNVVLADS | -0.0118
HMKNTLDAYIRYLSNFLSRNNYPEAEDLSFINARADQAYEVFLEARRGGVDVSTAEELAMIALMQGY | -2.34
HMKNVEEMILGKLKRKVSENLENASFEEIILVDAEKSVYKGIIKANYIEYYFRVNLSTGEVLSWKLK | -0.86
HMKPAFTPYVVKVTADVLNVRSGPGTNYGITTKVKKGEAYTIVEEKNGWGKLKSGAGWISLEYTVK | -1.09

From the domain aggregation screens of Martell et al. (2025)
